US20100210478A1, “MAKE AND USE OF SURFACE MOLECULES OF VARIED DENSITIES” (priority 2006, published 2010)

Assays:
peptide YVPM = test system: T1, peptide YVPM
T1 sequence: YVPM

peptide YEEIP = test system: T2, peptide YEEIP
T2 sequence: YEEIP

peptide YEE = test system: T3, peptide YEE
T3 sequence: YEE

peptide YEEI = test system: T4, peptide YEEI
T4 sequence: YEEI

Src kinase, p60c-src = target: T5, Src kinase, p60c-src (Homo sapiens, UniProt P12931); assay: protein kinase reaction on peptide chip, phosphorylation detected by cy3-Pro-Q staining; type: biochemical; settings: pH7.5, 0.07 mM ATP, 25° C. for 30 min
T5 construct: purchased Invitrogen
Excerpt: FIG. 8 is a fluorescence image of a protein kinase reaction on pY-phosphopeptide chip. The experiment used Src kinase, p60c-src (Invitrogen). The chip included 23 known kinase substrates and their sequence variants, which vary in length and composition, a number of position and negative control sequences, and a few artificial peptide sequences. For each substrate peptide, at the phosphorylation position, Tyr (Y) in YEEI, for instance, three sequences are present, which are YEEI, pYEEI and AEEI. pY-containing sequences are directly synthesized which are reference sequences for the Y-containing sequences (as the substrate for kinase reactions) There are also background sites which contain no peptides. 8-22 redundancies were present. The peptide sequences shown in the image are YVPM (column 1) and the YEEIP (column 2) related sequences in double replicates. These sequences are given on right of the image. […] Kinase reaction conditions and phosphorylation detection were: 10× enzyme storage solution (0.5 mg/ml). 50 ul reaction buffer, pH7.5 (50 HEPES, 0.1 mM EDTA, and 0.01% Brij 35, 0.1 mg/ml BSA, 0.1% beta-mercaptoethanol, 0.07 mM ATP, 10 mM MgCl2), 25° C. for 30 min. The array was stained by filling the array with 200 ul cy3-Pro-Q solution (phosphate staining reagent), standing at room temperature for 20 min. The chip was then washed with 2 ml destaining buffer, pH 4.0 (50 mM […], 20% acetonitrile) as recommended by the vendor. The image was obtained from a regular microarray scanner (Axon GenPix 4000B) and shown using inverted intensities after background subtraction.
The signal intensities were analyzed using the following equation:
Relative phosphorylation efficiency: fP =(IY−IA)/(IpY−IA)
For a peptide, I is the signal intensity, IY is for Y-containing sequence which undergoes phosphorylation by kinase,IpY is for the synthetic phosphopeptide, IA is for the sequence containing Y→A substitution. By using the positive controls (pY-sequence) and negative controls (A-sequence or other non-phosphorylation amino acids) to derive relative phosphorylation efficiency, fp as fraction or percentage, the kinase reaction results were analyzed quantitatively. The method takes the advantage of addressable peptide array for reducing false positive readout and improves reliability of the data analysis.

Row | Substance | phosphorylation by Src kinase (substrate reactivity) (Src kinase, p60c-src) | other results
1 | Src kinase, p60c-src (Invitrogen) | – | phosphorylation on peptide chip, cy3-Pro-Q phosphate staining (peptide YVPM): YVPM has the lowest reactivity; phosphorylation on peptide chip, cy3-Pro-Q phosphate staining (peptide YEEIP): YEEIP is a substrate of lower reactivity; phosphorylation on peptide chip, cy3-Pro-Q phosphate staining (peptide YEE): YEE and YEEI are phosphorylated by the Sic kinase used; phosphorylation on peptide chip, cy3-Pro-Q phosphate staining (peptide YEEI): YEE and YEEI are phosphorylated by the Sic kinase used
2 | YVPM | lowest reactivity | –

Further lines, with some results ahead:

Row | phosphorylation by Src kinase (substrate reactivity) (Src kinase, p60c-src) | Substance | other results
3 | phosphorylated | YEE | –
4 | phosphorylated | YEEI | –
5 | substrate of lower reactivity | YEEIP | –
